Patent US20230190652A1, “COMPOSITION FOR THE TREATMENT OF COVID-19 AND TREATMENT METHOD” (priority 2020, published 2023)

Test system: COVID-19
Assay: Intubated hospitalized critically ill COVID-19 patients
Type: in vivo, human
Details: patients in a critical condition with cytokine storm

B1: lactoferrin (protein, UniProt P24627 20-708, looked up)
Lactotransferrin: APRKNVRWCTISQPEWFKCRRWQWRMKKLGAPSITCVRRAFALECIRAIAEKKADAVTLDGGMVFEAGRDPYKLRPVAAEIYGTKESPQTHYYAVAVVKKGSNFQLDQLQGRKSCHTGLGRSAGWIIPMGILRPYLSWTESLEPLQGAVAKFFSASCVPCIDRQAYPNLCQLCKGEGENQCACSSREPYFGYSGAFKCLQDGAGDVAFVKETTVFENLPEKADRDQYELLCLNNSRAPVDAFKECHLAQVPSHAVVARSVDGKEDLIWKLLSKAQEKFGKNKSRSFQLFGSPPGQRDLLFKDSALGFLRIPSKVDSALYLGSRYLTTLKNLRETAEEVKARYTRVVWCAVGPEEQKKCQQWSQQSGQNVTCATASTTDDCIVLVLKGEADALNLDGGYIYTAGKCGLVPVLAENRKSSKHSSLDCVLRPTEGYLAVAVVKKANEGLTWNSLKDKKSCHTAVDRTAGWNIPMGLIVNQTGSCAFDEFFSQSCAPGADPKSRLCALCAGDDQGLDKCVPNSKEKYYGYTGAFRCLAEDVGDVAFVKNDTVWENTNGESTADWAKNLNREDFRLLCLDGTRKPVTEAQSCHLAVAPNHAVVSRSDRAAHVKQVLLHQQALFGKNGKNCPDKFCLFKSETKNLLFNDNTECLAKLGGRPTYEEYLGTEYVTAIANLKKCSTSPLLEACAFLTR
notes: bovine LF used
IL-6, TNF alpha, ferritin and DD2 parameters: normalizing or decreasing
